Experimental data from ChEMBL document CHEMBL1134791, “2- and 3-substituted 1,4-naphthoquinone derivatives as subversive substrates of trypanothione reductase and lipoamide dehydrogenase from Trypanosoma cruzi: synthesis and correlation between redox cycling activities and in vitro cytotoxicity” (J Med Chem, 2001).

Tests used:
Assay in all cases: Vmax is the maximum velocity of the TcTR (Trypanosoma cruzi trypanothione reductase) catalyzed NADPH oxidation.
[1] = substrate: CC1=C(CCC(=O)NCCCCNCCCNC(=O)CCC2=C(C)C(=O)c3cccc(O)c3C2=O)C(=O)c2c(O)cccc2C1=O
[2] = substrate: CC1=C(CCC(=O)NCCCCNCCCNC(=O)CCC2=C(C)C(=O)c3ccccc3C2=O)C(=O)c2ccccc2C1=O
[3] = substrate: CC1=C(CCC(=O)NCCCN2CCN(CCCNC(=O)CCC3=C(C)C(=O)c4cccc(O)c4C3=O)CC2)C(=O)c2c(O)cccc2C1=O
[4] = substrate: CC1=C(CCC(=O)NCCCN2CCN(CCCNC(=O)CCC3=C(C)C(=O)c4ccccc4C3=O)CC2)C(=O)c2ccccc2C1=O
[5] = substrate: CC1=C(CCC(=O)NCCCNCCCNC(=O)CCC2=C(C)C(=O)c3cccc(O)c3C2=O)C(=O)c2c(O)cccc2C1=O
[6] = substrate: CC1=C(CCCC(=O)NCCCCNCCCNC(=O)CCCC2=C(C)C(=O)c3ccccc3C2=O)C(=O)c2ccccc2C1=O
[7] = substrate: CC1=C(CCCC(=O)NCCCN2CCN(CCCNC(=O)CCCC3=C(C)C(=O)c4cccc(O)c4C3=O)CC2)C(=O)c2c(O)cccc2C1=O
[8] = substrate: CC1=C(CCCC(=O)NCCCN2CCN(CCCNC(=O)CCCC3=C(C)C(=O)c4ccccc4C3=O)CC2)C(=O)c2ccccc2C1=O
[9] = substrate: CC1=C(CCCC(=O)NCCCNCCCNC(=O)CCCC2=C(C)C(=O)c3cccc(O)c3C2=O)C(=O)c2c(O)cccc2C1=O
[10] = substrate: CC1=C(CCCC(=O)NCCCNCCCNC(=O)CCCC2=C(C)C(=O)c3ccccc3C2=O)C(=O)c2ccccc2C1=O
[11] = substrate: CC1=C(CCCCC(=O)NCCCCNCCCNC(=O)CCCCC2=C(C)C(=O)c3cccc(O)c3C2=O)C(=O)c2c(O)cccc2C1=O
[12] = substrate: CC1=C(CCCCC(=O)NCCCCNCCCNC(=O)CCCCC2=C(C)C(=O)c3ccccc3C2=O)C(=O)c2ccccc2C1=O
[13] = substrate: CC1=C(CCCCC(=O)NCCCN2CCN(CCCNC(=O)CCCCC3=C(C)C(=O)c4ccccc4C3=O)CC2)C(=O)c2ccccc2C1=O
[14] = substrate: CC1=C(CCCCC(=O)NCCCNCCCNC(=O)CCCCC2=C(C)C(=O)c3cccc(O)c3C2=O)C(=O)c2c(O)cccc2C1=O
[15] = substrate: CC1=C(CCCCCC(=O)NCCCCNCCCNC(=O)CCCCCC2=C(C)C(=O)c3ccccc3C2=O)C(=O)c2ccccc2C1=O
[16] = substrate: CC1=C(CCCCCC(=O)NCCCN2CCN(CCCNC(=O)CCCCCC3=C(C)C(=O)c4cccc(O)c4C3=O)CC2)C(=O)c2c(O)cccc2C1=O
[17] = substrate: CC1=C(CCCCCC(=O)NCCCN2CCN(CCCNC(=O)CCCCCC3=C(C)C(=O)c4ccccc4C3=O)CC2)C(=O)c2ccccc2C1=O
[18] = substrate: CC1=C(CCCCCC(=O)NCCCNCCCNC(=O)CCCCCC2=C(C)C(=O)c3cccc(O)c3C2=O)C(=O)c2c(O)cccc2C1=O
[19] = substrate: CC1=CC(=O)c2c(O)cccc2C1=O
[20] = substrate: CC1=CC(=O)c2ccccc2C1=O

B1: Trypanothione reductase (Trypanosoma cruzi), P28593 (protein)
chain: MMSKIFDLVVIGAGSGGLEAAWNAATLYKKRVAVIDVQMVHGPPFFSALGGTCVNVGCVPKKLMVTGAQYMEHLRESAGFGWEFDRTTLRAEWKKLIAVKDEAVLNINKSYEEMFRDTEGLEFFLGWGSLESKNVVNVRESADPASAVKERLETENILLASGSWPHMPNIPGIEHCISSNEAFYLPEPPRRVLTVGGGFISVEFAGIFNAYKPKDGQVTLCYRGEMILRGFDHTLREELTKQLTANGIQILTKENPAKVELNADGSKSVTFESGKKMDFDLVMMAIGRSPRTKDLQLQNAGVMIKNGGVQVDEYSRTNVSNIYAIGDVTNRVMLTPVAINEAAALVDTVFGTNPRKTDHTRVASAVFSIPPIGTCGLIEEVASKRYEVVAVYLSSFTPLMHNISGSKYKTFVAKIITNHSDGTVLGVHLLGDNAPEIIQGVGICLKLNAKISDFYNTIGVHPTSAEELCSMRTPSYYYVKGEKMEKPSEASL
**Q.** B1 was tested. Which Vmax (µM min-1 mg-1) [1] did it give?
**A.** 4.44

**Q.** And the Vmax [2]?
**A.** 1.83 µM/min/mg

**Q.** What about the Vmax [3] of the same protein?
**A.** 4.74 µM/min/mg

**Q.** What about the Vmax [4] of the same protein?
**A.** 0.74 µM/min/mg

**Q.** And the Vmax [5]?
**A.** 12.4 µM/min/mg

**Q.** What about the Vmax [6] of the same protein?
**A.** 2.04 µM/min/mg

**Q.** And the Vmax [7]?
**A.** 2.16 µM/min/mg

**Q.** And the Vmax [8]?
**A.** 0.6 µM/min/mg

**Q.** What about the Vmax [9] of the same protein?
**A.** 4.29 µM/min/mg

**Q.** What about the Vmax [10] of the same protein?
**A.** 0.45 µM/min/mg

**Q.** And the Vmax [11]?
**A.** 3.11 µM/min/mg

**Q.** And the Vmax [12]?
**A.** 1.11 µM/min/mg

**Q.** What about the Vmax [13] of the same protein?
**A.** 1.61 µM/min/mg

**Q.** And the Vmax [14]?
**A.** 3.83 µM/min/mg

**Q.** What about the Vmax [15] of the same protein?
**A.** 1.2 µM/min/mg

**Q.** What about the Vmax [16] of the same protein?
**A.** 1.61 µM/min/mg

**Q.** What about the Vmax [17] of the same protein?
**A.** 0.47 µM/min/mg

**Q.** What about the Vmax [18] of the same protein?
**A.** 4.87 µM/min/mg

**Q.** What about the Vmax [19] of the same protein?
**A.** 0.31 µM/min/mg

**Q.** What about the Vmax [20] of the same protein?
**A.** 0.26 µM/min/mg
